In the Immune Epitope Database (IEDB):

Key:
Assay in all cases: IEDB peptide-MHC binding, purified MHC/competitive/fluorescence; filed as Kd, often an IC50 or EC50 that approximates it; ≥ and ≤ were set here for values at or beyond the usual limits of such assays
HLA-B*18:01 = molecular target: HLA-B*18:01
HLA-A*24:03 = molecular target: HLA-A*24:03
HLA-A*69:01 = molecular target: HLA-A*69:01
HLA-A*02:16 = molecular target: HLA-A*02:16
HLA-A*02:03 = molecular target: HLA-A*02:03
HLA-A*29:02 = details: source organism: Entamoeba dispar SAW760
HLA-A*02:01 = molecular target: HLA-A*02:01
HLA-A*68:02 = molecular target: HLA-A*68:02
HLA-A*26:01 = molecular target: HLA-A*26:01
HLA-B*27:03 = molecular target: HLA-B*27:03
HLA-B*15:01 = molecular target: HLA-B*15:01
HLA-B*15:17 = details: source organism: Entamoeba dispar SAW760
HLA-A*03:01 = details: source organism: Entamoeba dispar SAW760
HLA-A*02:12 = molecular target: HLA-A*02:12
HLA-A*02:11 = molecular target: HLA-A*02:11
HLA-B*39:01 = molecular target: HLA-B*39:01
HLA-B*51:01 = molecular target: HLA-B*51:01
HLA-B*46:01 = molecular target: HLA-B*46:01
HLA-A*02:19 = molecular target: HLA-A*02:19
HLA-B*57:01 = molecular target: HLA-B*57:01
HLA-B*08:01 = details: source organism: Shigella boydii Sb227
HLA-A*31:01 = details: source organism: Coxiella burnetii RSA 331
[1] = source organism: Entamoeba dispar SAW760
[2] = source organism: Coxiella burnetii RSA 331

FELLHFISS
Kd (HLA-B*18:01; [1]): 0.564 µM
Kd (HLA-A*24:03; [1]): ≥ 20 µM
Kd (HLA-A*69:01; [1]): ≥ 20 µM
Kd (HLA-A*02:16; [1]): ≥ 20 µM
Kd (HLA-A*02:03; [1]): ≥ 20 µM
Kd (HLA-A*29:02): ≥ 20 µM
Kd (HLA-A*02:01; [1]): ≥ 20 µM
Kd (HLA-A*68:02; [1]): ≥ 20 µM
Kd (HLA-A*26:01; [1]): ≥ 20 µM
Kd (HLA-B*27:03; [1]): ≥ 20 µM
Kd (HLA-B*15:01; [1]): ≥ 20 µM
Kd (HLA-B*15:17): ≥ 20 µM
Kd (HLA-A*03:01): ≥ 20 µM
Kd (HLA-A*02:12; [1]): ≥ 20 µM
Kd (HLA-A*02:11; [1]): ≥ 20 µM
Kd (HLA-B*39:01; [1]): ≥ 20 µM
Kd (HLA-B*51:01; [1]): ≥ 20 µM
Kd (HLA-B*46:01; [1]): ≥ 20 µM
Kd (HLA-A*02:19; [1]): ≥ 20 µM
Kd (HLA-B*57:01; [1]): ≥ 20 µM

FLSHKIHVI
Kd (HLA-A*02:01; source organism: Shigella boydii Sb227): 0.0016 µM
Kd (HLA-B*08:01): 0.0861 µM

HMNKLPLAK
Kd (HLA-B*18:01; [2]): ≥ 20 µM
Kd (HLA-A*24:03; [2]): ≥ 20 µM
Kd (HLA-A*69:01; [2]): ≥ 20 µM
Kd (HLA-A*02:16; [2]): ≥ 20 µM
Kd (HLA-A*02:03; [2]): ≥ 20 µM
Kd (HLA-A*02:01; [2]): ≥ 20 µM
Kd (HLA-A*68:02; [2]): ≥ 20 µM
Kd (HLA-A*26:01; [2]): ≥ 20 µM
Kd (HLA-B*27:03; [2]): ≥ 20 µM
Kd (HLA-B*15:01; [2]): ≥ 20 µM
Kd (HLA-A*02:12; [2]): ≥ 20 µM
Kd (HLA-A*02:11; [2]): ≥ 20 µM
Kd (HLA-A*31:01): 0.223 µM
Kd (HLA-B*39:01; [2]): ≥ 20 µM
Kd (HLA-B*51:01; [2]): ≥ 20 µM
Kd (HLA-B*46:01; [2]): ≥ 20 µM
Kd (HLA-A*02:19; [2]): ≥ 20 µM
Kd (HLA-B*57:01; [2]): ≥ 20 µM
